The supplement of paper PMC10567573

B1: ZBED2 (parent)
chain: FHLAPARAGHHPNQYATCRLCGRQ
B2: EHMT1 (parent)
chain: FHKDCASRVNNASYCPHCGEESSK

Variants of: B1
Test: protein stability index of a GFP-peptide fusion (GPS, HEK-293T) (PSI 1-6); higher = more stable
Conditions: c terminus: a fixed tail appended
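Note: lentivirally expressed fusions sorted by FACS into six bins by GFP to DsRed ratio, PSI derived from sequencing read proportions per bin multiplied by bin number.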

Protein stability index, by site and new letter:
P12: S 2.23, L 2.12, H 3.06, W 1.52
C21: S 3.43, I 1.74, H 2.52, K 2.31
A6: S 1.61, D 1.89, T 1.51, M 1.67, I 1.71, H 1.92
N13: A 2.34, M 1.52, C 2.97
P5: F 2.03, G 1.77
Q24: S 2.03, G 2.41
L3: V 1.84, E 2.75, I 1.38, K 2.09
R7: Y 2.09, T 2.1, G 2.22, F 2.11
H11: I 1.33, N 1.39, C 2.12
H10: W 1.78, R 1.21, G 1.34, S 2.24, Y 1.7, K 2.63
A8: P 2.56, D 1.36, V 1.65, K 1.69, M 2.75, S 1.76
F1: K 2.53, V 2.74, L 2.13, P 3.07, Y 1.43, I 2.21, N 2.73
A16: T 2.3, C 2.85, H 2.27, S 1.82, P 2.4
A4: W 2.73, Q 1.91, E 2.05
G9: F 1.77, L 2.55, C 3.72, S 2.51, V 1.37, I 1.84, P 1.69, Q 2.11, W 2.05
R23: N 2.07, A 1.85, F 2.1, D 2, M 1.81
R19: G 2.11, F 1.64, A 1.93, Q 2.36
L20: M 1.94, Y 3.71, F 2.4, D 1.27, T 1.82, G 2.82
Q14: K 2.58
C18: A 2.12, I 2.17
Y15: E 2.43, P 1.07, K 1.53
H2: K 1.95, S 1.59, G 1.88, I 2.37
T17: G 2.76, N 1.99, S 2.47, F 2.23
G22: I 2.08

Variants of: B2
Test: as above
Conditions: c terminus: a fixed tail appended

Protein stability index of substitutions, site by site:
C15: T 3.59, P 3.75, S 3.55, Q 3.67, G 3.82, F 3.04, N 3.88, I 3.32, E 4.22, H 3.56, Y 2.74, R 3.49, D 3.89, L 3.45, K 3.68, A 3.32, M 3.16, W 2.08, V 3.67
Y14: E 4.05, M 3.59, K 3.59, S 3.26, G 3.38, D 3.77, W 2.45, L 3.82, R 3.52, H 3.47, I 3.47, F 3.36, P 3.9, Q 4, V 3.44, A 3.31, N 3.75, C 3.66, T 3.73
G19: L 3.67, R 2.84, D 3.9, P 3.75, H 3.36, I 3.87, V 4.11, Q 3.35, K 3.65, C 3.59, A 3.93, T 3.51, F 3, M 3.55, W 2.96, Y 3.91, N 3.5, S 3.48, E 4.05
K24: L 3.43, A 2.92, M 3.26, F 3.07, T 3.25, W 3.05, Y 2.9, I 3.27, N 2.99, S 3.48, D 3.58, H 3.45, V 3.47, E 3.11, P 3.22, Q 3.49, C 3.7, R 2.5, G 3.5
A12: P 3.25, V 3, R 3.33, Y 2.85, T 3.31, W 2.54, Q 3.96, S 3.29
E21: A 3.52, Q 3.12, T 3.4, L 2.55, I 2.83, G 3.29, P 2.41, W 2.8, V 2.32, M 2.64, Y 2.63, F 2.93, D 3.22, C 3.07, S 2.71, K 3.22, N 3.17, H 3, R 2.92
C18: A 3.76, K 3.85, S 3.68, M 2.96, H 3.62, G 3.63, R 3.73, N 3.67, T 3.58, Q 3.59, W 2.31, V 3.75, F 2.93, L 2.76, E 4.36, Y 3.16, P 3.79, I 3.04, D 4.03
E20: L 2.78, R 3.16, S 3.16, F 2.93, N 3.37, W 3.77, P 3.27, A 3.21, Q 3.14, D 3.92, G 3.6, Y 3.46, I 2.95, T 3.19, H 2.99, V 2.94, C 3.55, K 3.68, M 3.15
S22: L 3.22, Y 3.36, A 3.46, N 3.93, M 3.31, Q 3.55, V 3.38, F 3.2, K 3.77, G 2.81, E 4.01, R 3.05, I 3.68, C 3.59, W 2.54, P 3.03, H 4.09, T 3.54, D 3.35
P16: C 3.11, E 3.94, A 3.24, F 2.73, R 2.96, I 3.36, D 3.52, L 3.35, M 3.07, K 3.57, H 3.15, V 3.89, G 3.24, T 3.42, Q 3.61, S 3.23, W 1.66, Y 2.58, N 3.29
H17: W 2.16, G 3.18, R 3.5, K 3.43, M 3.14, S 3.4, N 3.85, P 2.87, A 3.68, L 3.05, V 3.54, D 3.84, T 3.58, F 2.96, Q 3.21, C 3.45, Y 2.87, E 3.47, I 3.35
S23: I 3.87, G 3.34, V 3.41, E 3.21, Q 3.89, H 3.48, P 3.15, W 2.69, N 3.41, A 3.63, F 3.63, T 3.72, D 3.39, K 3.16, C 4.21, R 3.21, Y 3.6, L 3.15, M 3.49
S13: D 3.81, N 3.6, F 2.34, A 3.36, W 2.15, T 3.72, C 2.37, K 3.46, V 2.76, E 3.77, I 2.17, Q 3.8, M 3.13, Y 2.34, H 3.66, P 3.12, R 3.16, L 2.62, G 3.97
